Experimental data as given in patent US20200147199A1.
Positions count from the first letter of the chain named.

B1: Z004 (MEX18_89) (antibody, V domains shown)
VH: EVQLLESGGGLVQPGGSLRLTCATSGFTFRDYAMSWVRQAPGKGLEWVSSYSGIDDSTYYADSVKGRFTISRDNSKSTLSLHMNSLRAEDSALYFCAKDRGPRGVGELFDSWGQGTLVTVSS
VL: DIQMTQSPSTLSASVGDRVTITCRASQSISKWLAWYQQKPGKAPKLLIYTTSTLKSGVPSRFSGSGSGTEFTLTISSLQPDDFATYYCQHFYSVPWTFGQGTKVEIK
B2: Z053 (BRA138_65) (antibody, V domains shown)
VH: QLQLQESGPGLVKPSETLSLTCTVSGGSISSYNYYWGWIRQPPGKGLEFIGSIYYTGSTYYNPSLRSRVTISVDTSKNQFSLKLTSVTAADTAVYYCARHGPGMGHNWYFDLWGRGTLVTVSS
VL: EIVLTQSPATLSLSPGERATLSCRASQSISSYLAWYQQKPGQAPRLLIYDASNRAPGIPARFSGSGSGTDFTLTISSLEPEDFAVYYCQQRSTWLTFGGGTKVEIK
B3: Z016 (MEX84_p2-55) (antibody, V domains shown)
VH: QVQLVQSGAEVKKPGASVKLSCKASGYTFTSYYVHWVRQAPGQGLEWMGIINPGNNFVSFAQNFYDRATMTRDTSTNTVYMELTNLQSEDTAVYYCARTLVAPSAQSMYYFDFWGQGTLVTVSS
VL: EIVLTQSPGTLSLSPGERGTLSCRASQYITTGHFAWYQQKPGRAPRLLIYGASVRATGVPDRFSGSGAETDFTLTISRLDPEDVGVYYCQQYGSSPVTFGPGTKVDIK
B4: Z002 (MEX18_27) (antibody, V domains shown)
VH: EVQLLESGGGLVQPGGSLRLSCATSGFTFSTYAMSWVRQAPGKGLEWVSSFSGVDDSTYYAESVKGRFTISRDNSKNTVYLQMTRLRAEDTAVYYCAKDRGPRGVGELFDSWGQGTLVTVSS
VL: B1 VL with I21M, S30N, K31R, Y92H
B5: Z011 (MEX105_15) (antibody, V domains shown)
VH: EVQLLESGGGLVQPGGSLRLSCAASGFTFRTYAMSWVRQPPGKGLEWVSSISAREDSTYFAASVRGRFTISRDNSKNTLYLQMNNLRAEDTALYYCAKDRLQLGVGELYESWGQGTLVTVSS
VL: DIQMTQSPSTLSASVGDRVTITCRASQNINSWLAWYQQKPGKAPKLLIYMASSLQSGVPSRFSGSGSGTEFTLTVSSLQPDDFATYYCQHYHSYPWTFGQGTKVEIK
B6: Z003 (MEX18_58) (antibody, V domains shown)
VH: EVQLLESGGGLVQPGGSLRLSCATSGFTFTTFAMSWVRQAPGKGLEWVSSISGADDSTYYAASVKGRFTISRDNSRSTLFLQMNSLRAEDTAVYYCAKDRGPRGVGELFDSWGQGTLVTVSS
VL: B1 VL with K45R, Y92F
B7: Z034 (BRA112_09) (antibody, V domains shown)
VH: EVQLLESGGGLAQPGGSLRLSCETSGFTFRSYGMGWVRQAPGKGLEWVSSIYISGDSTYYAASVKGRFTISRDNSKSTLYLQMDRLTAEDTAVYYCVRDRIQGGFGELYRYWGQGTLVTVSS
VL: DIQMTQSPSTLSASVGDRVTMTCRASQSVNKWLAWYQQKPGKAPKLLIYETSILESGVSSRFSGSGSGTEFTLTISSLQPDDFATYYCQHYHGYPWTFGQGTKVEIK
B8: Z007 (MEX105_50) (antibody, V domains shown)
VH: EVQLLESGGGLVRPGGSLRLSCTASGFTFRRYAMAWVRQAPGKGLEWVSLIYDGDDSTYYAKSVKGRFAISRDNSKNTLSLQMNSLRAEDTAVYYCVKDRDNGWSSIVDWGQGTLVTVSS
VL: DIQMTQSPSTLSASVGDRVTITCRASHSISGWLAWYQQKPGKAPKLLIYQASILESGVPSRFSGSGSGTEFTLTIGSLQPEDFATYFCQQYSTFWTFGQGTKVEIK
B9: Z009 (MEX105_64) (antibody, V domains shown)
VH: B8 VH with D53N, K62E, A69T, I70V, K76Q, V93I, K98R
VL: B8 VL with H27R, S28T, S30G, G31S, S56G, G66V, G76R
B10: Z008 (MEX105_60) (antibody, V domains shown)
VH: B8 VH with Y32F, Y52W, D53N, K62E, K65R, A69T, K76H, N84R, V93I
VL: B8 VL with H27Q, S28T, S30G, G31N, I53V, G76S
B11: Z036 (BRA112_91) (antibody, V domains shown)
VH: EVQLLESGGDLVQPGGSLRLSCAASGFTFSTYGMAWVRQAPGKGLEWLSSISSVDDSKYYAASVKGRFTISRDNSRNTLYLHMNSLRVDDTAVYYCAKDRIPHGLGELYANWGQGTLVTVSS
VL: DIQMTQSPSTLSASVGDRVTITCRASQSISGWLAWYQQKPGKAPRLLMHKASNLYSGVPSRFSGSGSGTEFTLTISSLQPDDFATYYCQHYHSYPYTFGQGTKVEIK
B12: Z055 (MEX84_p4-61) (antibody, V domains shown)
VH: EVQLVQSGAEVKKPGASVKVSCKASGYTFSGYYIHWLRQAPGQGLEWMGWINSNSGGADSGPRFHGRVTMTRDTSINTAYLELTNLRSDDTAVYYCARRTYYDTRFPYWYFDLWGRGTLVTVSS
VL: AIRMTQSPSSLSASVGDRVTITCRASQDIGSYLNWYQQKPGKAPNVLISAASTLQSGVPSRISGIGSGTDFTLTISSLQPEDFATYYCQQSLSAPYTFGQGTKLEIK
B13: Z005 (MEX18_13) (antibody, V domains shown)
VH: EVQLLESGGGLVQPGGSLRLSCAASGFTFSSYAMSWVRQAPGKGLEWVSSFSGIDDSTWYADSVKGRFTISRDNSKSTLYLQMNSLRAEDTAVYYCAKDRLVRGFAEVLDYWGRGTLVTVSS
VL: DIQMTQSPSSLSASVGDRVTITCRASQDISKYLAWYQQRPGKVPNLLIYTASTLQSGVPSRFSGSGSGTHFTLTISSLQPEDVATYYCQKYNSVPWTFGQGTKVEIK
B14: Z062 (BRA112_70) (antibody, V domains shown)
VH: EVQLVESGGGVVQPGRSLRLSCAASGFSFSSHAMYWVRQAPGKGLEWVAIVSYDGSTKNYADSVKGRFTISRDNSKNTIYLHLNSLRAEDTAVYFCAREVDGIYGYLHYWGQGTLVTVSS
VL: EIVLTQSPATLSLSPGERATLSCRARQNVRNFLAWYQQKPGQAPRLLIYDASNRATDIPARFSGSGSGTDFTLTISSLEPEDFAVYYCQQRSYSITFGQGTRLEIK
B15: Z057 (MEX84_p4-54) (antibody, V domains shown)
VH: EVQLVQSGAEVKRPGASVKVSCKASGYTFADYYIHWVRQAPGLGLEWMGWINPKTGFSHYEQTFQGRVTMARDTSIPAAYMELSSLKSDDTAIYYCARGGRINVAEALRYWGQGSLVTVSS
VL: DIQMTQSPSTLSTFVGDRVTITCRASQTIGDWLAWYQQKPGKAPKLLISKATRLESGVPSRFSGSGSETEFSLTINSLQPDDVAAYYCQQYMSYPWTFGQGTKLEIK
B16: Z061 (BRA112_36) (antibody, V domains shown)
VH: EVQLVESGGGVVQPGRSLRLSCAASGFTFSISTIHWVRQAPGKGLEYVVVISHDGNTKYYADSVKGRFIISRDNSKNTVFLQMNSLRPVDTAVYYCARGEVGYFDLWGRGTLVTVSS
VL: EIVLTQSPATLSLSPGERATLSCRASQSVSSFLAWYQQKPGQPPRLLIYDASTRATGIPARFSGSGSGTDFTLTISSLEPEDFAVYYCQQRSNWPPITFGQGTRLEIK
B17: Z059 (MEX84_p4-34) (antibody, V domains shown)
VH: EVQLVQSGAEVKTPGSSVKVSCKTSGGTFSNFAITWVRQAPGQGLEWMGGIIPLFGITNYTQKFQGRVTITTDESKTTAYMDLSGLRSEDTAVYFCARGRDSSGRLLDHWGQGTLVTVSS
VL: EIVMTQSPATLSVSPGERATLSCRASQTVNRNLAWYQQKPGQAPRLLIYAASARATGVPARFSGSGSGTEFTLTISSLQSEDFVVYYCQQYNNWPPLTFGGGTKLEIK
B18: Z052 (BRA138_62) (antibody, V domains shown)
VH: QVQLQESGPGLVKPSQTLSLTCTVSGGSITGGVYYWNWIRHHPGKGLEWIGYMFYSGDTDYNPSLRSRVTISGDTSKNKFSLNLNSVTAADTAVYYCARAGFDYGSPVSAFDIWGQGTLVTVSS
VL: EIVLTQSPATLSLSPGERATLSCRASQSVSSTYLVWYQQKPGQAPRLLIYGASSRATGIPDRFSGSGSGTDFTLTISRLEPEDFAVYFCQQYAHSPRGYTFGQGTKLEIK
B19: Z017 (MEX84_p2-58) (antibody, V domains shown)
VH: QVQLVQSGAGMRKPGASVKVSCKASGYSFNDYYIHWVRQAPGQGLEWMGWINPKSGFTNYAQRFQGRVTMTGDTSNSVAYMELTRLTSDDTAVYYCARGGRINAPLGFDPWGQGTLVTVSS
VL: EIVLTQSPDTLSLSPGETATLSCRASQSIGSISLGWYQQKFGQAPRLLIYGASTRATGTPDRFSGSGSETDFTLTISRLEPEDSAVYYCQQYVSSPLRFGGGTKVEIK
B20: Z051 (BRA138_59) (antibody, V domains shown)
VH: QVQLQESGPGLVKPSQTLSLTCTVSGVSISSGGYYYSWFRQLPGKGLEWIGHIYYTGNTHYNPSLRSRLTISVDTSKNQFSLKLSSVTAADTARYYCARAWCEYAAYCWFDPWGRGTLVTVSS
VL: EIVLTQSPGTLSLSPGERATLSCRASQSVTSSYLAWYQHKPGQAPRLLIYGASSRAPGIPDRFSGSGSGTDFTLTISRLEPEDFAVYWCQQYGRSPFTFGQGTKLEIK
B21: Z013 (MEX18_84) (antibody, V domains shown)
VH: EVQLLESGGGLVQPGGSLRLSCAASGFTFTSYAMNWVRQAPGKGLEWVSGIGGRGAIAGDGSIYYADSVKGRFTISRDNSKNIVYLQMNGLRVEDTAVYYCAKDRVAFDGFHVWGQGTLVTVSS
VL: B5 VL with S9P, N28S, N30S, M50K, Q55E, T72S, V75I, D81E, H90Q, H92N
B22: Z056 (MEX84_p2-94) (antibody, V domains shown)
VH: EVQLVQSGAEVKKPGASVKVSCKASGNTFMGYYFHWVRQAPGQGLEWMGWINPNSGHANIAQTFQGRVTMTRDPSITTAYMELSRLRSDDTAVFYCARGGMLGQLWALDNWGQGTLVTVSS
VL: DIQMTQSPSTLSASVGDRVTITCRASQSISHWLAWYQQRPGEAPKLLIYQASTLESGVPSRFSGSGSGTEFTLSISSLQPDDFATYYCQQYQSSPYTFGQGTKLEIK
B23: Z050 (BRA138_28) (antibody, V domains shown)
VH: QVQLVQSGAEVKKPGSSVKVSCKAPGGTFSRYSIAWVRQAPGQGLEWMGGINPTFTTPNYAQKFQGRVTITADESTNTAYLDLSSLRSEDTAVYYCARFRYYYESGGYSDASPYYLDYWGQGTLVTVSS
VL: EIVLTQSPATLSLSPGERVTLSCRASQSVSSYLAWYQQKPGQAPRLLIYDASNRATGIPARFTGSGSGTDFTLTISSLEPEDFAVYYCQQRSNWPLTFGGGTKVEIK

target: T1, ZIKV E Domain III ([..]), polyhistidine-AviTag, produced in HEK-293-6E cells (ZIKV); assay: ELISA, biotinylated Z004 on coated ZEDIII, streptavidin-HRP; conditions: remark: other sources report otherwise

Binder B1 has an EC50 of 0.16 µg/mL.

target: T1, ZIKV E Domain III ([..]), …; assay: ELISA on coated ZIKV EDIII; conditions: remark: other sources report otherwise

Point of comparison: B9, EC50 0.0284 µg/mL. Against it:
- B2 — 59-fold higher, 1.68 µg/mL
- B3 — 2.5-fold higher, 0.0724 µg/mL
- B4 — within 1.5-fold, 0.0252 µg/mL
- B5 — within 1.5-fold, 0.038 µg/mL
- B6 — within 1.5-fold, 0.0255 µg/mL
- B7 — within 1.5-fold, 0.0235 µg/mL
- B8 — within 1.5-fold, 0.0346 µg/mL
- B10 — within 1.5-fold, 0.0326 µg/mL
- B11 — 1.7-fold lower, 0.0172 µg/mL
- B12 — 66-fold higher, 1.88 µg/mL
- B13 — 7.6-fold higher, 0.216 µg/mL
- B14 — 7.3-fold higher, 0.208 µg/mL
- B15 — 2.9-fold higher, 0.0828 µg/mL
- B16 — 11-fold higher, 0.311 µg/mL
- B17 — 21-fold higher, 0.61 µg/mL
- B18 — 2.2-fold lower, 0.0131 µg/mL
- B19 — higher, > 10 µg/mL
- B20 — 65-fold higher, 1.86 µg/mL
- B21 — higher, > 10 µg/mL
- B22 — 35-fold higher, 0.982 µg/mL
- B23 — within 1.5-fold, 0.0303 µg/mL
